According to patent publication EP4592315A1:

Key:
[1] = molecular target: FcRs expressed by THP-1 cells; experiment: flow cytometry on THP-1 cells (self-expressing FcRs), anti-human IgG-Fc PE
[2] = molecular target: human FcγRIIb (human) (UniProt P31994); experiment: flow cytometry on CHOS-hCD32b cells (overexpressing human FcγRIIb), anti-human IgG-Fc PE
human FcγRIIb (human), sequence (P31994 43-310): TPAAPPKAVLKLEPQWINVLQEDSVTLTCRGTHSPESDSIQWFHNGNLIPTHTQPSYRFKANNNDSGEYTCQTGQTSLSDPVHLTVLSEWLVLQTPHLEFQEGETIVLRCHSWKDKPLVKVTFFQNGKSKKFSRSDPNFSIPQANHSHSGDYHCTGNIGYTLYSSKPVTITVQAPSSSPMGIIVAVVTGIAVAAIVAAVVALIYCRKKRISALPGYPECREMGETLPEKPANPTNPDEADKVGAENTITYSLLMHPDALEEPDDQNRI

EC50 [1] [nM]	EC50 [2] [nM]	Substance
0.462	–	Urelumab (antibody)
0.731	–	Trastuzumab (antibody)
0.716	1.35	Pertuzumab (antibody)
